Measured values as given in ChEMBL document CHEMBL2073936, “A novel human hepatic organic anion transporting polypeptide (OATP2). Identification of a liver-specific human organic anion transporting polypeptide and identification of rat and human hydroxymethylglutaryl-CoA reductase inhibitor transporters” (J Biol Chem, 1999).

Tests used:
[1] = biological target: T1, Solute carrier organic anion transporter family member 1B1 (Homo sapiens, UniProt Q9Y6L6); test: (§1) TP_TRANSPORTER: uptake in OATP-C-expressing 293c18 cells; format: functional, cell-based; details: hek293-ebna
T1 sequence (Q9Y6L6 whole entry): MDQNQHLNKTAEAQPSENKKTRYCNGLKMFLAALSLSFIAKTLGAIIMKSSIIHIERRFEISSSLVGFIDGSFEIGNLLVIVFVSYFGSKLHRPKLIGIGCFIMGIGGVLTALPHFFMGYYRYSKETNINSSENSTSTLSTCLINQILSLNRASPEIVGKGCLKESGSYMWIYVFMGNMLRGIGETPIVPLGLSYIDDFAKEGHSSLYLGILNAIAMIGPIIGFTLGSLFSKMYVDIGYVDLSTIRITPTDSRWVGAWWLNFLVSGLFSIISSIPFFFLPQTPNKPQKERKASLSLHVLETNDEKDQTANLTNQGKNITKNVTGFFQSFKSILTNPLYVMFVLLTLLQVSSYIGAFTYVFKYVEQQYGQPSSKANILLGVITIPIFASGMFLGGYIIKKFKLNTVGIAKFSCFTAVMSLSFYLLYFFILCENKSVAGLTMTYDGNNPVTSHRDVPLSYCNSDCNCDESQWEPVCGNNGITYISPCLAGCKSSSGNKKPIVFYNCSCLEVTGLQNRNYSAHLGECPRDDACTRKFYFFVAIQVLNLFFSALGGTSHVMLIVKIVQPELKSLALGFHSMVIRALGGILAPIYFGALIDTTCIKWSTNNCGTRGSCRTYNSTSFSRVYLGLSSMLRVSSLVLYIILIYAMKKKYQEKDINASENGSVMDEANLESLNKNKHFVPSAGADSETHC

[2] = substrate: CC[C@H](C)C(=O)O[C@H]1C[C@H](O)C=C2C=C[C@H](C)[C@H](CC[C@@H](O)C[C@@H](O)CC(=O)O)[C@H]21; test: TP_TRANSPORTER: uptake in Oatp1-expressing 293c18 cells; format: functional, cell-based, HEK293-EBNA
[3] = substrate: CC[C@H](C)C(=O)O[C@H]1C[C@H](O)C=C2C=C[C@H](C)[C@H](CC[C@@H](O)C[C@@H](O)CC(=O)O)[C@H]21; test: as §1; format: functional, cell-based, HEK293-EBNA

N[C@@H](Cc1cc(I)c(Oc2cc(I)c(O)c(I)c2)c(I)c1)C(=O)O [LEVOTHYROXINE] was tested. Which Activity [1] did it give?
The Activity was “substrate [+]”.

B1: Solute carrier organic anion transporter family member 1A1 (Rattus norvegicus) (protein)
chain: MEETEKKIATQEGRLFSKMKVFLLSLTCACLTKSLSGVYMNSMLTQIERQFDISTSVAGLINGSFEIGNLFFIVFVSYFGTKLHRPVVIGIGCVIMGLGCLLMSLPHFFMGRYEYETTISPTGNLSSNSFLCMENRTQTLKPTQDPAECVKEMKSLMWICVMVGNIIRGIGETPIVPLGISYIEDFAKSENSPLYIGILEMGKVAGPIFGLLLGSYCAQIYVDIGSVNTDDLTITPSDTRWVGAWWIGFLVCAGVNILTSIPFFFLPKALPKKGQQENVAVTKDGKVEKYGGQAREENLGITKDFLTFMKRLFCNPIYMLFILTSVLQVNGFINKFTFLPKYLEQQYGKSTAEAIFLIGVYSLPPICLGYLIGGFIMKKFKITVKKAAYLAFCLSVFEYLLFLCHFMLTCDNAAVAGLTTSYKGVQHQLHVESKVLADCNTRCSCSTNTWDPVCGDNGVAYMSACLAGCKKFVGTGTNMVFQDCSCIQSLGNSSAVLGLCKKGPECANRLQYFLILTIIISFIYSLTAIPGYMVFLRCVKSEEKSLGVGLHTFCIRVFAGIPAPVYFGALIDRTCLHWGTLKCGQRGACRMYDINSFRHIYLGLPIALRGSSYLPAFFILILMRKFQFPGDIDSSATDHTEMMLGEKESEHTDVHGSPQVENDGELKTKL
Which Km [2] does the source give for B1 here?
The Km was 30 µM.

B2: Solute carrier organic anion transporter family member 1B1 (Homo sapiens) (protein)
chain: T1 sequence (Q9Y6L6 whole entry)
With B2 as the molecule, how does the Km [3] read?
The Km was 33.7 µM.
